Earlier results as cited in publication PMC4245983.
Where two headings read alike, the source gives them in different places.

Assays:
[1] = molecular target: IscU (Escherichia coli) (UniProt P0ACD4); details: cited from earlier work
[2] = molecular target: IscU (Escherichia coli) (UniProt P0ACD4); details: cited from earlier work; remark: listed apart in the source

Chain of IscU (Escherichia coli) (P0ACD4 whole entry): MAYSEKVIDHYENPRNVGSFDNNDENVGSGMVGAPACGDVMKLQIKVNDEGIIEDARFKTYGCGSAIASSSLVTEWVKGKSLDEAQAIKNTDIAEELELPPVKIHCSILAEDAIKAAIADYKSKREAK
Chain of HscA (P0A6Z1 whole entry): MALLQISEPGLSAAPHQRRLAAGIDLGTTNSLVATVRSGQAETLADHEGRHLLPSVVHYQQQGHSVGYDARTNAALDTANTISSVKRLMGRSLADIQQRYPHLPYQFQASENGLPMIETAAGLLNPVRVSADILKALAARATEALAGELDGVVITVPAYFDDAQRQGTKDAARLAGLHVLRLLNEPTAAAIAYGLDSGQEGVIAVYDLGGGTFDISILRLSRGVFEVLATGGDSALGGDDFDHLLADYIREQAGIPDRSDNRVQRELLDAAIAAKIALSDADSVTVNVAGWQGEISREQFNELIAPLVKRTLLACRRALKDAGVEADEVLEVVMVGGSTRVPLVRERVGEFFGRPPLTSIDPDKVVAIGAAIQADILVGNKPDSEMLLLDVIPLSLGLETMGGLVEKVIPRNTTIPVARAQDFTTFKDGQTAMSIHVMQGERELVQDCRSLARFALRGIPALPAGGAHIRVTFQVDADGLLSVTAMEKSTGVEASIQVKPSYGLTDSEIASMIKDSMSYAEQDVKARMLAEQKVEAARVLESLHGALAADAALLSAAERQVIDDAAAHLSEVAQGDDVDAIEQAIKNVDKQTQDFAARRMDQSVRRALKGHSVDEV

In the case of HscA (from UniProt P0A6Z1), the Kd [1] is given as 1.6 µM and the Kd [2] is given as 37 µM.
